Measured values taken from article doi:10.1101/2021.04.12.439405 (bioRxiv, 2021).

B1: MukB-His (wild type MukB) (natural protein, E. coli, UniProt P22523 1-1486, looked up)
chain: MIERGKFRSLTLINWNGFFARTFDLDELVTTLSGGNGAGKSTTMAAFVTALIPDLTLLHFRNTTEAGATSGSRDKGLHGKLKAGVCYSMLDTINSRHQRVVVGVRLQQVAGRDRKVDIKPFAIQGLPMSVQPTQLVTETLNERQARVLPLNELKDKLEAMEGVQFKQFNSITDYHSLMFDLGIIARRLRSASDRSKFYRLIEASLYGGISSAITRSLRDYLLPENSGVRKAFQDMEAALRENRMTLEAIRVTQSDRDLFKHLISEATNYVAADYMRHANERRVHLDKALEFRRELHTSRQQLAAEQYKHVDMARELAEHNGAEGDLEADYQAASDHLNLVQTALRQQEKIERYEADLDELQIRLEEQNEVVAEAIERQQENEARAEAAELEVDELKSQLADYQQALDVQQTRAIQYNQAIAALNRAKELCHLPDLTADCAAEWLETFQAKELEATEKMLSLEQKMSMAQTAHSQFEQAYQLVVAINGPLARNEAWDVARELLREGVDQRHLAEQVQPLRMRLSELEQRLREQQEAERLLADFCKRQGKNFDIDELEALHQELEARIASLSDSVSNAREERMALRQEQEQLQSRIQSLMQRAPVWLAAQNSLNQLSEQCGEEFTSSQDVTEYLQQLLEREREAIVERDEVGARKNAVDEEIERLSQPGGSEDQRLNALAERFGGVLLSEIYDDVSLEDAPYFSALYGPSRHAIVVPDLSQVTEHLEGLTDCPEDLYLIEGDPQSFDDSVFSVDELEKAVVVKIADRQWRYSRFPEVPLFGRAARESRIESLHAEREVLSERFATLSFDVQKTQRLHQAFSRFIGSHLAVAFESDPEAEIRQLNSRRVELERALSNHENDNQQQRIQFEQAKEGVTALNRILPRLNLLADDSLADRVDEIRERLDEAQEAARFVQQFGNQLAKLEPIVSVLQSDPEQFEQLKEDYAYSQQMQRDARQQAFALTEVVQRRAHFSYSDSAEMLSGNSDLNEKLRERLEQAEAERTRAREALRGHAAQLSQYNQVLASLKSSYDTKKELLNDLQRELQDIGVRADSGAEERARIRRDELHAQLSNNRSRRNQLEKALTFCEAEMDNLTRKLRKLERDYFEMREQVVTAKAGWCAVMRMVKDNGVERRLHRRELAYLSADDLRSMSDKALGALRLAVADNEHLRDVLRMSEDPKRPERKIQFFVAVYQHLRERIRQDIIRTDDPVEAIEQMEIELSRLTEELTSREQKLAISSRSVANIIRKTIQREQNRIRMLNQGLQNVSFGQVNSVRLNVNVRETHAMLLDVLSEQHEQHQDLFNSNRLTFSEALAKLYQRLNPQIDMGQRTPQTIGEELLDYRNYLEMEVEVNRGSDGWLRAESGALSTGEAIGTGMSILVMVVQSWEDESRRLRGKDISPCRLLFLDEAARLDARSIATLFELCERLQMQLIIAAPENISPEKGTTYKLVRKVFQNTEHVHVVGLRGFAPQLPETLPGTDEAPSQAS

Columns and labels:
Test in all cases: native MS
[1] = target: MukB^N (MukB Neck) (E. coli)
[2] = target: MukB^HN (MukB Head-Neck) (E. coli)
native MS = target: the molecule itself

Molecule	stoichiometry N [1]	stoichiometry N [2]	binding result (native MS)
Acyl Carrier Protein (AcpP), co-purified with MukB proteins (from UniProt P0A6A8 1-78) (natural protein)	1	1	–
MukB^N (MukB Neck) (domain or fragment)	2	–	–
B1	–	–	binds
